# Target: human IgG1 coated on ELISA plates (human, UniProt P01857-1 1-330 = IgG part)
# Assay: competition ELISA, human IgG1 coat; blocked ligand FLAG-tagged FcγRIIIA, anti-FLAG-HRP [panel B]
binder,measurement,value
"HCMV viral Fcγ receptor gp34 (residues 24-182), soluble, strep and FLAG tags (receptor, range 24-182) SSSNAVEPTKKPLKLANYRATCEDRTRTLVTRLNTSHHSVVWQRYDIYSRYMRRMPPLCIITDAYKETTRQGGAAFACTRQNLTLYNLTVKDTGVYLLQDQYTGDVEAFYLIIHPRSFCRALETRRCFYPGPGRVVVTDSQEADRAIISDLKRQWSGLS",IC50 (read off the curve),~30 nM

# Source: patent US20220144916A1 (University of Texas, published 2022)
